Test results reported in patent publication US20200199241A1 (Chugai, published 2020).
Changes are numbered by the printed parent chain. In names and notes the source's numbering stands.

T1: FcγRIIa type H (human, UniProt P12318 36-217)
T1 construct: SPR analyte; also called FcγRIIaH
T1 sequence: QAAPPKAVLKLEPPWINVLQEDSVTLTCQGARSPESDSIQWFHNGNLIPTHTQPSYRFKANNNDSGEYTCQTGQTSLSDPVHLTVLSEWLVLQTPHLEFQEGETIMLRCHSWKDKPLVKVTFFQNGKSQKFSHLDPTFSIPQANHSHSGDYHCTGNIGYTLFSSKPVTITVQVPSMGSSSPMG

T2: FcγRIIa type R (human, UniProt P12318 36-217)
T2 construct: SPR analyte; also called FcγRIIaR; FcγRIIa(R)
T2 chain: T1 sequence with H133R

T3: FcγRIIb (human, UniProt P31994 43-217, limits assumed)
T3 construct: SPR analyte; also called FcγIIB; CD32
T3 sequence: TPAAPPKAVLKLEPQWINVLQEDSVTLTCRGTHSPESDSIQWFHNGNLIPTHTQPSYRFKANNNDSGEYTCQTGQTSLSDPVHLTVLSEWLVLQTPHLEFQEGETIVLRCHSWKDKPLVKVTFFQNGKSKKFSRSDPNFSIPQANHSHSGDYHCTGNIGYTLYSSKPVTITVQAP

T4: human FcγRIIa type R (human, UniProt P12318 36-217)
T4 construct: also called FcγRIIaR; FcγRIIa(R)
T4 chain: T1 sequence with H133R

T5: human FcγRIIa(R) (human, UniProt P12318 36-217)
T5 construct: also called hFcgRIIa(R); FcγRIIa type R
T5 chain: T1 sequence with H133R

T6: human FcγRIIb (human, UniProt P31994 43-217, limits assumed)
T6 construct: also called hFcgRIIb; FcγIIB
T6 sequence: T3 sequence

T7: human FcγRIIa(H) (human, UniProt P12318 36-217)
T7 construct: also called hFcgRIIa(H); FcγRIIa type H
T7 sequence: T1 sequence

B1: IL6R-BP082/IL6R-L (antibody, human IgG1)
heavy: QVQLQESGPGLVKPSETLSLTCAVSGHSISHDHAWSWVRQPPGEGLEWIGFISYSGITNYNPSLQGRVTISRDNSKNTLYLQMNSLRAEDTAVYYCARSLARTTAMDYWGEGTLVTVSSASTKGPSVFPLAPSSKSTSGGTAALGCLVKDYFPEPVTVSWNSGALTSGVHTFPAVLQSSGLYSLSSVVTVPSSSLGTQTYICNVNHKPSNTKVDKKVEPKSCDKTHTCPPCPAPDLLGGDSVFLFPPKPKDTLMISRTPEVTCVVVDVSHEDPEVKFNWYVDGVEVHNAKTKPREEQYNSTYRVVSVLTVLHQDWLNGKEYKCKVSNKALPKPIEKTISKAKGQPREPQVYTLPPSRDELTKNQVSLTCLVKGFYPSDIAVEWESNGQPENNYKTTPPVLDSDGSFFLYSKLTVDKSRWQQGNVFSCSVMHEALHNHYTQESLSLSP
light: DIQMTQSPSSLSASVGDRVTITCRASQDISSYLNWYQQKPGKAPKLLIYYTSRLHSGVPSRFSGSGSGTDFTFTISSLQPEDIATYYCQQGNTLPYTFGQGTKVEIK
B2: IL6R-BP150/IL6R-L (antibody, human IgG1)
heavy: B1 heavy with D235E, L236Y, G239D, K328A, K332R
light: B1 light
B3: IL6R-BP143/IL6R-L (antibody, human IgG1)
heavy: B1 heavy with D235E, L236Y, K328A, K332A
light: B1 light
B4: IL6R-BP177/IL6R-L (antibody, human IgG1)
heavy: B1 heavy with L236Y, G239D, P273G, K328D
light: B1 light
B5: IL6R-BP151/IL6R-L (antibody, human IgG1)
heavy: B1 heavy with L236Y, G239D, K328A, K332R
light: B1 light
B6: IL6R-BP130/IL6R-L (antibody, human IgG1)
heavy: B1 heavy with V325M
light: B1 light
B7: IL6R-BP131/IL6R-L (antibody, human IgG1)
heavy: B1 heavy with G239D
light: B1 light
B8: IL6R-BP149/IL6R-L (antibody, human IgG1)
heavy: B1 heavy with L236Y, G239D, Y298D, K328A
light: B1 light
B9: IL6R-PD080/IL6R-L (antibody)
chain 1: B1 heavy with D235E, G239D, M254Y, K332A, N436Y, E441K
chain 2: not shown
B10: antibody with VH3-IgG1-F938 heavy chain and L(WT)-CK light chain (antibody)
heavy: B1 heavy with D235E, L237K, D240P, S241K, M254Y, K332A, N436Y, Y438V, E441K
light: not shown
notes: L235K/S239K on VH3-IgG1-F890; copies: 2 + 2
B11: antibody with VH3-IgG1-F1316 heavy chain and L(WT)-CK light chain (antibody)
heavy: B1 heavy with D235E, G239R, D240P, S241K, M254Y, K332A, N436Y, Y438V, E441K
light: not shown
notes: G237R/S239K on VH3-IgG1-F890; copies: 2 + 2
B12: antibody with VH3-IgG1-F1333 heavy chain and L(WT)-CK light chain (antibody)
heavy: B1 heavy with D235E, L237R, G238R, D240P, S241K, M254Y, K332A, N436Y, Y438V, E441K
light: not shown
notes: L235R/G236R/S239K on VH3-IgG1-F890; copies: 2 + 2
B13: antibody with VH3-IgG1-F1317 heavy chain and L(WT)-CK light chain (antibody)
heavy: B1 heavy with D235E, D240P, S241K, M254Y, P331K, K332A, N436Y, Y438V, E441K
light: not shown
notes: S239K/P329K on VH3-IgG1-F890; copies: 2 + 2
B14: antibody with VH3-IgG1-F1356 heavy chain and L(WT)-CK light chain (antibody)
heavy: B1 heavy with D235E, G238R, D240P, M254Y, L330R, K332A, N436Y, Y438V, E441K
light: not shown
notes: G236R/L328R on VH3-IgG1-F890; copies: 2 + 2
B15: antibody with VH3-IgG1-F1315 heavy chain and L(WT)-CK light chain (antibody)
heavy: B1 heavy with D235E, G239K, D240P, S241K, M254Y, K332A, N436Y, Y438V, E441K
light: not shown
notes: G237K/S239K on VH3-IgG1-F890; copies: 2 + 2
B16: antibody with VH3-IgG1-F1318 heavy chain and L(WT)-CK light chain (antibody)
heavy: B1 heavy with D235E, D240P, S241K, M254Y, P331R, K332A, N436Y, Y438V, E441K
light: not shown
notes: S239K/P329R on VH3-IgG1-F890; copies: 2 + 2
B17: antibody with VH3-IgG1-F1325 heavy chain and L(WT)-CK light chain (antibody)
heavy: B1 heavy with D235E, L236A, L237A, D240P, M254Y, N299A, K332A, N436Y, Y438V, E441K
light: not shown
notes: L234A/L235A/N297A on VH3-IgG1-F890; copies: 2 + 2

biological target: T1, FcγRIIa type H; experiment: SPR (Biacore), antibody captured, FcγR analyte
From the text: (§1) Furthermore, KD(IIaR)/KD(IIb) and KD(IIaH)/KD(IIb) in the table respectively represent the value obtained by dividing the KD value of each variant for FcγRIIaR by the KD value of each variant for FcγRIIb, and the value obtained by dividing the KD value of each variant for FcγRIIaH by the KD value of each variant for FcγRIIb. KD(IIb) of the parent polypeptide/KD(IIb) of the altered polypeptide refers to the value obtained by dividing the KD value of the parent polypeptide for FcγRIIb by the KD value of each variant for FcγRIIb.

Kd | Binder
37 µM | B1
3.4 µM | B2
27 µM | B3
8.2 µM | B4
4.7 µM | B5
26 µM | B6
14 µM | B7
8.4 µM | B8

Biological target: T2, FcγRIIa type R
Experiment: SPR (Biacore), antibody captured, FcγR analyte
From the text: as §1

Kd | Binder
12 µM | B1
0.55 µM | B2
5.7 µM | B3
0.71 µM | B4
0.67 µM | B5
5.3 µM | B6
3.1 µM | B7
1.4 µM | B8

biological target: T3, FcγRIIb; experiment: SPR (Biacore), antibody captured, FcγR analyte
From the text: as §1

Kd | Binder
0.54 µM | B1
0.031 µM | B2
0.57 µM | B3
0.052 µM | B4
0.04 µM | B5
0.3 µM | B6
0.25 µM | B7
0.093 µM | B8

biological target: T8, FcγRIIIa type V (human, UniProt P08637 17-208, limits assumed); experiment: SPR (Biacore), antibody captured, FcγR analyte
T8 construct: SPR analyte; allotype V158 was used here; also called FcγRIIIaV; FcγRIIIa(V)
T8 sequence (P08637 other isoform, or with tags, fused parts or gaps limits assumed): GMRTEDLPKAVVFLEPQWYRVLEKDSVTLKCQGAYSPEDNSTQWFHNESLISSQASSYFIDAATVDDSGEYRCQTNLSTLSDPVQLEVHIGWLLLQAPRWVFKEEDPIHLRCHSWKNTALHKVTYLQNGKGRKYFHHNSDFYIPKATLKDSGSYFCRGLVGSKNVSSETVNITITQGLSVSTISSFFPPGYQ
From the text: as §1

Kd | Binder
81 µM | B1
34 µM | B2
62 µM | B3
37 µM | B4
31 µM | B5
71 µM | B6
59 µM | B7
37 µM | B8

biological target: T9, FcγRIa (human, UniProt P12314 16-292, limits assumed); experiment: SPR (Biacore), antibody captured, FcγR analyte
T9 construct: SPR analyte; also called CD64
T9 sequence (P12314 16-292 limits assumed): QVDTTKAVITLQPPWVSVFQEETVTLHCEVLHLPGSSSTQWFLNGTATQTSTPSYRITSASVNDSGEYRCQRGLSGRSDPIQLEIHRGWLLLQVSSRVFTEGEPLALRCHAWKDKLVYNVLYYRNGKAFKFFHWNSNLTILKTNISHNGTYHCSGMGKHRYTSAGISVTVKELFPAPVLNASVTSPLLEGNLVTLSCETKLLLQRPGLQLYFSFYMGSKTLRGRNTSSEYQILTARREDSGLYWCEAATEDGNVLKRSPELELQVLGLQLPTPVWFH
From the text: as §1

Kd | Binder
0.018 µM | B1
0.32 µM | B2
0.016 µM | B3
0.033 µM | B4
0.084 µM | B5
0.0018 µM | B6
0.12 µM | B7
0.12 µM | B8

Biological target: T4, human FcγRIIa type R
Experiment: SPR (Biacore), antibody captured, FcγR as analyte

Kd | Binder
21 µM | B9

Biological target: T5, human FcγRIIa(R)
Experiment: SPR, antibody captured by Protein L, human FcγR as analyte, pH 7.4, 25 C;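 further: biacore T100 or T200 with Protein L amine-coupled on a CM4 chip, FcγRs diluted in ACES saline with polysorbate 20, buffer-only injection as blank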

BINDING AMOUNT (RU) | Binder
-0.12 RU | B10
-0.33 RU | B11
-0.15 RU | B12
-1.48 RU | B13
-0.23 RU | B14
-1.14 RU | B15
-1.59 RU | B16
-1.17 RU | B17

biological target: T6, human FcγRIIb; experiment: as above

BINDING AMOUNT (RU) | Binder
-0.14 RU | B10
-0.44 RU | B11
-0.2 RU | B12
-0.23 RU | B13
0.63 RU | B14
0.63 RU | B15
0.26 RU | B16
1.46 RU | B17

biological target: T10, human FcγRIa (human, UniProt P12314 16-292, limits assumed); experiment: as above
T10 construct: also called hFcgRIa; hFcgRI
T10 sequence (P12314 16-292 limits assumed): as above

BINDING AMOUNT (RU) | Binder
-0.49 RU | B10
-0.12 RU | B11
-0.35 RU | B12
-1.46 RU | B13
-0.9 RU | B14
-2.71 RU | B15
-0.31 RU | B16
-0.47 RU | B17

biological target: T7, human FcγRIIa(H); experiment: as above

BINDING AMOUNT (RU) | Binder
-0.05 RU | B10
-0.34 RU | B11
-0.56 RU | B12
-0.76 RU | B13
-0.22 RU | B14
-1.37 RU | B15
-1.12 RU | B16
-0.62 RU | B17

biological target: T11, human FcγRIIIa(V) (human, UniProt P08637 17-208, limits assumed); experiment: as above
T11 construct: also called hFcgRIIIa(V); allotype V158
T11 sequence (P08637 other isoform, or with tags, fused parts or gaps limits assumed): as the sequence (P08637 other isoform, or with tags, fused parts or gaps limits assumed) above

BINDING AMOUNT (RU) | Binder
1.2 RU | B10
-0.42 RU | B11
-1.42 RU | B12
-2.76 RU | B13
0.09 RU | B14
-2.69 RU | B15
-3.63 RU | B16
-2.4 RU | B17

biological target: T3, FcγRIIb; experiment: ratio of SPR KDs; reference IL6R-B3/IL6R-L
From the text: as §1

KD(IIb) of the parent polypeptide/KD(IIb) of altered polypeptide | Binder
5.8 | B1
99 | B2
5.4 | B3
60 | B4
77.4 | B5
10.2 | B6
12.6 | B7
33.1 | B8

biological target: T3, FcγRIIb; experiment: ratio of SPR KDs: KD for FcγRIIaH over KD for FcγRIIb
From the text: (§2) Furthermore, KD(IIaR)/KD(IIb) and KD(IIaH)/KD(IIb) in the table respectively represent the value obtained by dividing the KD value of each variant for FcγRIIaR by the KD value of each variant for FcγRIIb, and the value obtained by dividing the KD value of each variant for FcγRIIaH by the KD value of each variant for FcγRIIb.

KD(IIaH)/KD(IIb) | Binder
69 | B1
109 | B2
47.1 | B3
159 | B4
118 | B5
85.5 | B6
56.9 | B7
89.9 | B8

biological target: T3, FcγRIIb; experiment: ratio of SPR KDs: KD for FcγRIIaR over KD for FcγRIIb
From the text: as §2

KD(IIaR)/KD(IIb) | Binder
22.8 | B1
17.7 | B2
10 | B3
13.8 | B4
16.9 | B5
17.5 | B6
12.5 | B7
15 | B8

Biological target: T2, FcγRIIa type R
Experiment: ratio of SPR KDs; stronger receptor here FcγRIIaR; reference IL6R-B3/IL6R-L (FcγRIIaH)
From the text: as §1

KD of the stronger of FcγRIIaR/FcγRIIaH binding of the variant / that of the parent polypeptide | Binder
15.8 | B1
0.7 | B2
7.5 | B3
0.9 | B4
0.9 | B5
6.9 | B6
4 | B7
1.8 | B8
